Values quoted from earlier work, collected in patent publication US6468965B1, “Pharmaceutical composition for oral administration of a mixture of chelating agents” (priority 2002, dated 2002).

Experiments:
[1] = system: Porphyromonas gingivalis; conditions: literature report, J. Biol. Chem. 2000
[2] = system: VEGF165-Mediated Angiogenesis; conditions: orally administered; literature report, Int. J. Cancer 2001
[3] = system: colon 26 carcinoma; conditions: orally administered; literature report, Nutrition and Cancer 2000

B1: lactoferrin (protein, UniProt P24627 20-708, looked up)
Lactotransferrin: APRKNVRWCTISQPEWFKCRRWQWRMKKLGAPSITCVRRAFALECIRAIAEKKADAVTLDGGMVFEAGRDPYKLRPVAAEIYGTKESPQTHYYAVAVVKKGSNFQLDQLQGRKSCHTGLGRSAGWIIPMGILRPYLSWTESLEPLQGAVAKFFSASCVPCIDRQAYPNLCQLCKGEGENQCACSSREPYFGYSGAFKCLQDGAGDVAFVKETTVFENLPEKADRDQYELLCLNNSRAPVDAFKECHLAQVPSHAVVARSVDGKEDLIWKLLSKAQEKFGKNKSRSFQLFGSPPGQRDLLFKDSALGFLRIPSKVDSALYLGSRYLTTLKNLRETAEEVKARYTRVVWCAVGPEEQKKCQQWSQQSGQNVTCATASTTDDCIVLVLKGEADALNLDGGYIYTAGKCGLVPVLAENRKSSKHSSLDCVLRPTEGYLAVAVVKKANEGLTWNSLKDKKSCHTAVDRTAGWNIPMGLIVNQTGSCAFDEFFSQSCAPGADPKSRLCALCAGDDQGLDKCVPNSKEKYYGYTGAFRCLAEDVGDVAFVKNDTVWENTNGESTADWAKNLNREDFRLLCLDGTRKPVTEAQSCHLAVAPNHAVVSRSDRAAHVKQVLLHQQALFGKNGKNCPDKFCLFKSETKNLLFNDNTECLAKLGGRPTYEEYLGTEYVTAIANLKKCSTSPLLEACAFLTR
notes: 80 kDa mammalian iron-chelating glycoprotein obtainable from the whey protein of cow's milk
action on growth of the bacteria responsible for gingivitis [1]: inhibiting action
effect on angiogenesis [2]: inhibiting angiogenesis
effect on the lung colonization of colon 26 carcinoma [3]: significant inhibiting effect
